Test [1] deals with T1, c-MET on the surface of Hcc827 or Hcc827-GR6 cells (human, UniProt P08581 25-1390).
T1 construct: whole, on cells; The cells express the receptor endogenously, and MET is amplified in Hcc827-GR6; also called cell surface MET
As to the kind of experiment: phage flow cytometry on Hcc827-GR6 cells, bound phage detected with FITC anti-M13 antibody. On the procedure: (§1) For phage antibodies, flow cytometry was used to confirm their binding to c-MET expressing cells. Bacteria culture containing phage was concentrated 30 times into PBS according to published method (Antibody Engineering Methods and Protocols, Benny K. C. Lo). $2 \sim 5 \times 10^5$ c-MET positive Hcc827 or Hcc827-GR6 cells (Engelman et. al, Science, 2007) were incubated with 100 ul concentrated phage and 30 ul 4% milk-PBS on ice for 1 hour. Cells were then washed using flow buffer (PBS, 1% FBS, 2 mM EDTA), and the binding phage antibodies were detected by FITC conjugated anti-M13 monoclonal antibody (Santa Cruz Biotechnology, Cat# sc-53005 Fitc).
Background: A flow cytometer gives signals particle by particle.

The next test deals with T2, cell surface MET (Homo sapiens, UniProt P08581).
T2 construct: endogenous in cells; host or cells: Hcc827 or Hcc827-GR6
T2 sequence (P08581 25-1390): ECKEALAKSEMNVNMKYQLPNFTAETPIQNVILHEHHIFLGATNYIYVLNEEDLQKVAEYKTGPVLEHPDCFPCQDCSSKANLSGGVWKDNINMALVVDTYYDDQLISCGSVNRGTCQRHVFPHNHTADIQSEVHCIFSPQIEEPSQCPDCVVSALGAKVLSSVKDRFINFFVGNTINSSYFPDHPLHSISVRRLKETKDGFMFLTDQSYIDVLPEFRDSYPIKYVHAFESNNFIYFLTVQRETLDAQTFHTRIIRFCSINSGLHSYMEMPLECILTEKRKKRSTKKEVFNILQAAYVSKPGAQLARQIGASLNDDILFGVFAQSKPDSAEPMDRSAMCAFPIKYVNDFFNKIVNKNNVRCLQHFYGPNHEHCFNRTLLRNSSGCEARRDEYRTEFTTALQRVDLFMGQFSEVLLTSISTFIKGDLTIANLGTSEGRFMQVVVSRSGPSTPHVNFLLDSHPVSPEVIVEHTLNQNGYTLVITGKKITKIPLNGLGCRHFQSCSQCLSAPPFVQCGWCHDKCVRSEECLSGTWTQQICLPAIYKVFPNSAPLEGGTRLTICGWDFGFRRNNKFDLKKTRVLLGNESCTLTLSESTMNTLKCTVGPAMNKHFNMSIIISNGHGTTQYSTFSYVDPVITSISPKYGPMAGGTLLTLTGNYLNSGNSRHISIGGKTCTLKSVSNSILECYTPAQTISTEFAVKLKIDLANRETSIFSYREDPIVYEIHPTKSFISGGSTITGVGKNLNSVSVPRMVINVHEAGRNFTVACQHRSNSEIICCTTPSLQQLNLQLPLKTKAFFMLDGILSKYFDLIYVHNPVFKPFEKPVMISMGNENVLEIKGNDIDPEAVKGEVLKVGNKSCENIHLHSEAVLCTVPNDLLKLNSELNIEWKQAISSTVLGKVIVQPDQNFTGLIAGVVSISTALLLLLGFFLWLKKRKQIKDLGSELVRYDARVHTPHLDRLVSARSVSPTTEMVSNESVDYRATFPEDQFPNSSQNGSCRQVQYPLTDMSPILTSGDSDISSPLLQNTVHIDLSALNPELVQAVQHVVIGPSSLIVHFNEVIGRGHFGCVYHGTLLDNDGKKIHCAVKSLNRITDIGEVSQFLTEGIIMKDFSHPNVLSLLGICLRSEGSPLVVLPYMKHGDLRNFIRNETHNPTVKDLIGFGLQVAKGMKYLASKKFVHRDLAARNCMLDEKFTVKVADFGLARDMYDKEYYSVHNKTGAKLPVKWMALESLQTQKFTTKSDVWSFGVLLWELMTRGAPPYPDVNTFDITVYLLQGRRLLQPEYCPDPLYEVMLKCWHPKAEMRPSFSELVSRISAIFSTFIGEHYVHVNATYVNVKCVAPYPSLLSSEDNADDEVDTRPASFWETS
As to the kind of experiment: Phage flow cytometry for binding to c-MET expressing cells. To be noted: phage antibodies; Hcc827 or Hcc827-GR6 cells; FITC anti-M13 detection. On the procedure: as §1, with “2˜5×105” for “$2 \sim 5 \times 10^5$”
93 clones were randomly picked after 3 rounds of panning. The phage-containing supernatant was used for phage ELISA. Top 64 clones with highest A405 signal were sequenced, among which 19 distinctive clones with different sequences were identified. These distinctive clones were then tested for binding to cell surface MET by phage flow experiments. 8 of these clones show good binding to cell surface MET and were selected for the subsequent purification and characterizations.

The target of test [2] is T1, c-MET on the surface of Hcc827 or …. As to the kind of experiment: flow cytometry binding curve on cells (the sheet does not name them; paragraph 217: Hcc827 GR6 cell line). On the procedure:
(§2) The affinities of the cys-diabodies were evaluated by flow cytometry. Serial diluted cys-diabodies were incubated with Hcc827-GR6 cells at 4 degrees for 2 hours. The cys-diabodies were detected with 1/100 mouse anti-c-Myc antibody (Sigma, Cat# M4439) and stained with 1/100 PE or FITC conjugated goat anti mouse IgG polyclonal antibody (Jackson ImmunoResearch) in flow buffer.
(§3) The affinity of these 3 cys-diabodies were evaluated by flow cytometry. The concentrations of the purified proteins were determined by their A280, measured with Nanodrop 2000 (Thermal Scientific), and their calculated extinction coefficient (ProtParam tool, expasy.org). The binding curve was fitted with one-site total binding model by GraphPad Prism.

Test [3] addresses T3, mouse MET-hIgG Fc fusion protein (Sino Biological Inc.) (mouse; human, UniProt P16056 25-931, limits assumed).
T3 construct: Bought protein; also called mouse MET protein; MET-hFc
As to the kind of experiment: capture ELISA: cys-diabody coated on the plate, mouse MET-hIgG Fc applied, detected with alkaline phosphatase anti-human IgG. On the procedure: 1 µg of purified anti-MET cys-diabodies in 100 µL PBS were used to coat each well at 4 degree overnight. Anti-EpCAM cys-diabody or 2% milk-PBS were used for negative controls. The overnight coated plate was then washed with PBS and blocked with 2% milk-PBS at 37 degree for 2 hours. The plate was then washed with PBS before adding 0.1 µg human or mouse MET-hIgG Fc fusion protein (purchased from Sino Biological Inc.) in 100 µL, 2% milk-PBS to each well. The plate was incubated at room temperature for 1.5 hours, and then washed with PBS-Tween and PBS. The captured human or mouse MET-hIgG Fc were detected with alkaline phosphatase conjugated goat anti-human IgG.
C2, H2 and H5 cys-diabodies were used to coat 96-well ELISA plate to capture human or mouse MET-hIgG Fc fusion protein. The human IgG Fc on the fusion protein was detected with alkaline phosphatase conjugated goat anti-human IgG. The results in FIG. 4 show H2 cys-diabody can bind to both human and mouse MET protein, while C2 and H5 cys-diabodies show minimal cross reactivity to the mouse MET. Anti-EpCAM H9 cys-diabody or 2% milk-PBS were used as negative controls.
For orientation: ELISA stands for enzyme-linked immunosorbent assay.

For test [4], the target named is T1, c-MET on the surface of Hcc827 or …. The test is described as follows: flow cytometry on Hcc827-GR6 cells, one-site total binding fit. On the procedure:
as §2, §3

T1 sequence (P08581 25-1390): as above
T3 sequence (P16056 25-931 limits assumed): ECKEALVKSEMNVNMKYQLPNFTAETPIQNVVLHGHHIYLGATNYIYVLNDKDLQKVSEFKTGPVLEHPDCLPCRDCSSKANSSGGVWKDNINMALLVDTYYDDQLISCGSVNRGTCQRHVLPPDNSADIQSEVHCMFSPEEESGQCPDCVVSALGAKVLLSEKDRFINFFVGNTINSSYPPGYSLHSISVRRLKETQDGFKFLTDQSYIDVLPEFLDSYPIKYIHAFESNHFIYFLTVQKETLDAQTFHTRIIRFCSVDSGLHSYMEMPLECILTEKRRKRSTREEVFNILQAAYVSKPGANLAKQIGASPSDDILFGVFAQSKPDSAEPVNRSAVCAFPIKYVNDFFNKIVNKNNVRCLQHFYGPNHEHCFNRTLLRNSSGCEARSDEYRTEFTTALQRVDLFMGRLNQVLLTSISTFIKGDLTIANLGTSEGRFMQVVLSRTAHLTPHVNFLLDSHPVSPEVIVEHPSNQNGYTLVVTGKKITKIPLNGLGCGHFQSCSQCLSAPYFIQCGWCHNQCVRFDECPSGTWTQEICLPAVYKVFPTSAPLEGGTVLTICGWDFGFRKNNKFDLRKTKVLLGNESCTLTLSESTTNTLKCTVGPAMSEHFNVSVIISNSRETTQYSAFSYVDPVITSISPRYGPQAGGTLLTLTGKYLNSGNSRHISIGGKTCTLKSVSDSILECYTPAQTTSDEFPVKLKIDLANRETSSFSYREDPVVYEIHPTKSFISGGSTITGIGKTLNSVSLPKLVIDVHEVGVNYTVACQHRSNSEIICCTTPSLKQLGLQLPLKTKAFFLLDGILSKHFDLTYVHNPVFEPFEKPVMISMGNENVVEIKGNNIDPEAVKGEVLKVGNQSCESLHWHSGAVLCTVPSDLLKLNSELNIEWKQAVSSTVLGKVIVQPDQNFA

B1: G1 ScFv antibody (phage-displayed) (scFv)
scFv: QVQLQESGGGVVQPGGSLRLSCAASGFTFSSYSMNWVRQAPGKGLEWVSSISSSSSYIYYADSVKGRFTISRDNAKNSLYLQMNSLRAEDTAVYYCARDLPSDDYGDYDYYYYGMDVWGQGTTVTVSSGGGGGSGGGGSGGGGSQSVLTQPPSASGTPGQRVTLFCSGSSSNIASNSVKWYQQPPQRAPKLLMFSDDQRPSGVPVRFSASKSGTSASLAISGLQSEDEADYYCAAWDDSLNAEVFGGGTKVTVLG
notes: The fusion to the phage coat protein is not described
On to B1, for which the binding result in test [1] is recorded as “binds”.

B2: F11 ScFv antibody (phage-displayed) (scFv)
scFv: QVQLQESGGGLLQPGGSLRLSCAASRFTFSNYAMSWVRQAPGKGLEWVSAISGSGASTYYADSVKGRFTISRDNSKNTLYLQMNSLRAEDTAVYYCSNLYGDYDYWGQGTLVTVSSGGGGGSGGGGSGGGGSQSVLTQPASVSGSPGQSITISCTGTSSDVGGYNYVSWYQQHPGKAPKLMIYDVSNRPSGVSNRFSGSKSGNTASLTISGLQAEDEADYYCSSYTSSSTLLFGGGTKLTVLG
notes: as for B1
As for B2, the binding result in test [1] is “binds”.

B3: C2 ScFv antibody (phage-displayed) (scFv)
scFv: QVQLQESGGGLVQPGGSLRLSCAASGFTFSSYAMSWVRQAPGKGLEWVSAISGSGGSTYYADSVKGRFTISRDNSKNTLYLQMNSLRAEDTAVYYCASQHVGEQSRYFDYWGQGTLVTVSSGGGGGSGGGGSGGGGSDIVMTQSPSSLSASIGDRVTITCRASHSISSYVNWYQKKPGKAPNLLIYAASYLPRGVPSRFSGSGLGTDFTLTISNLQPEDFATYYCQESYSTPYSFGQGTKVDIKR
notes: as for B1
B3: the binding result in test [1] is listed as “binds”.

B4: H5 ScFv antibody (phage-displayed) (scFv)
scFv: QVQLQESGGGLVQPGGSLRLSCAASGFTFSNYAMSWVRQAPGKGLEWVSAISGSGGSTYYADSVKGRFTISRDNSKNTLYLQMNSLRAEDTAVYYCAKDRFRAAAYWGQGTLVTVSSGGGGGSGGGGSGGGGSQSVLTQPPSVSAAPGQKVTISCTGSSSNIGAGYDVHWYQQLPGTAPKLLIYGNSNRPSGVPDRFSGSKSGTSASLAISGLQSEDEADYYCAAWDDILNGEIFGGGTKVTVLG
notes: as for B1
Consider B4, for which the binding result in test [1] is on record as “binds”.

B5: H5 ScFv antibody: human anti-c-Met ScFv comprising SEQ ID NO:32; tested as phage-displayed clone (protein)
scFv: B4 scFv
modifications: phage-displayed; synthetic H5 ScFv sequence
As to B5, the “binding to cell surface MET” value with cell surface MET is “can bind to cell surface MET”.

B6: E9 ScFv antibody (phage-displayed) (scFv)
scFv: QVQLQESGGGVVQPGRSLRLSCAASGFTFSSYGMHWVRQAPGKGLEWVSAIGSSGGSTHDADTVKGRFTISRDNAKNSLYLQMNSLRAEDTAVYYCARDRARGFDYWGQGTLVTVSSGGGGGSGGGGSGGGGSEIVLTQSPSTLSASIGDRVTITCRASQGISSYLAWYQQKPGKAPKLLIYGASSLQSGVPSRFSGRGSGADFTLTISSLQPEDFATYYCQQLISYPLTFGGGTKVEIKR
notes: as for B1
As to B6, the binding result in test [1] was “binds”.

B7: C2 cys-diabody (other)
chain: QVQLQESGGGLVQPGGSLRLSCAASGFTFSSYAMSWVRQAPGKGLEWVSAISGSGGSTYYADSVKGRFTISRDNSKNTLYLQMNSLRAEDTAVYYCASQHVGEQSRYFDYWGQGTLVTVSSGGGGGSDIVMTQSPSSLSASIGDRVTITCRASHSISSYVNWYQKKPGKAPNLLIYAASYLPRGVPSRFSGSGLGTDFTLTISNLQPEDFATYYCQESYSTPYSFGQGTKVDIKRAAAEQKLISEEDLNGAAHHHHHHC
notes: Expressed in E. coli and purified through the His tag; also called C2 diabody
In general, Kd refers to the free concentration of one partner at which half of the binding sites on the other are occupied at equilibrium, for simple one-to-one binding. A lower Kd goes with a tighter complex. For the molecule B7, the values for the Kd in test [2] and in test [4] were 2 nM and 2.4 nM, respectively. Also, the binding result in test [3] is reported as “no binding”.

B8: H5 cys-diabody (other)
chain: QVQLQESGGGLVQPGGSLRLSCAASGFTFSNYAMSWVRQAPGKGLEWVSAISGSGGSTYYADSVKGRFTISRDNSKNTLYLQMNSLRAEDTAVYYCAKDRFRAAAYWGQGTLVTVSSGGGGGSQSVLTQPPSVSAAPGQKVTISCTGSSSNIGAGYDVHWYQQLPGTAPKLLIYGNSNRPSGVPDRFSGSKSGTSASLAISGLQSEDEADYYCAAWDDILNGEIFGGGTKVTVLGAAAEQKLISEEDLNGAAHHHHHHC
notes: Expressed in E. coli and purified through the His tag; also called H5 diabody
For B8, the figures for the Kd in test [2] and in test [4] were 4.7 nM and 4.6 nM, respectively. Besides, the binding result in test [3] is reported as “no binding”.

The record behind these values is patent US10407503B2, “Fully human antibodies and fragments recognizing human c-Met” (THE REGENTS OF THE UNIVERSITY OF CALIFORNIA, priority 2012, dated 2019).
